Source: paper PMC9720572, “Macromolecular crowding amplifies allosteric regulation of T-cell protein tyrosine phosphatase” (The Journal of Biological Chemistry, 2022)

Molecular target: the molecule itself
Experiment: FRET or BRET; in vitro intermolecular FRET; equimolar mixture of the CFP-X-CFP and YFP-X-YFP fusions, total protein 10 nM, kinetic buffer (50 mM Tris-HCl pH 7.0, 125 mM NaCl, 0.01% Tween-20, 1 mM DTT) with 22.5% PEG 3350, 1 h at 30 °C; excitation 400 nm, ratio R of emission at 530 nm/485 nm

Protein | binding result
TC45^E/A (TC45 with 378KRKRPR383 mutated into 378EAAAPE383), fused at both termini to CFP (CFP-TC45^E/A-CFP) or to YFP (YFP-TC45^E/A-YFP), bacterially expressed (enzyme, UniProt P17706-2 1-387, looked up, The His6 tag and its thrombin cleavage are described in general for the pET28 constructs and the purification; also called C-EA-C; Y-EA-Y; not shown: His6, N-terminal, cleaved; CFP (one copy) or YFP (the other copy), N-terminal, kept; CFP (one copy) or YFP (the other copy), C-terminal, kept) MPTTIEREFEELDTQRRWQPLYLEIRNESHDYPHRVAKFPENRNRNRYRDVSPYDHSRVKLQNAENDYINASLVDIEEAQRSYILTQGPLPNTCCHFWLMVWQQKTKAVVMLNRIVEKESVKCAQYWPTDDQEMLFKETGFSVKLLSEDVKSYYTVHLLQLENINSGETRTISHFHYTTWPDFGVPESPASFLNFLFKVRESGSLNPDHGPAVIHCSAGIGRSGTFSLVDTCLVLMEKGDDINIKQVLLNMRKYRMGLIQTPDQLRFSYMAIIEGAKCIKGDSSIQKRWKELSKEDLSPAFDHSPNKIMTEKYNGNRIGLEEEKLTGDRCTGLSSKMQDTMEENSESALRKRIREDRKATTAQKVQQMKQRLNENEREAAAPELTDT | binds
T-cell protein tyrosine phosphatase, 45 kDa form (TC45), wild type, fused at both termini to CFP (CFP-TC45-CFP) or to YFP (YFP-TC45-YFP), bacterially expressed (enzyme, UniProt P17706-2 1-387, looked up, T-cell protein tyrosine phosphatase (TC-PTP, encoded by PTPN2), 45 kDa form TC45, full-length ORF; the printed residues 377RKRKRPR383 near the C terminus fit the 387-residue TC45 isoform; Self-association was tested with an equimolar mixture of two differently labelled copies: CFP-TC45-CFP and YFP-TC45-YFP; The His6 tag and its thrombin cleavage are described in general for the pET28 constructs …) MPTTIEREFEELDTQRRWQPLYLEIRNESHDYPHRVAKFPENRNRNRYRDVSPYDHSRVKLQNAENDYINASLVDIEEAQRSYILTQGPLPNTCCHFWLMVWQQKTKAVVMLNRIVEKESVKCAQYWPTDDQEMLFKETGFSVKLLSEDVKSYYTVHLLQLENINSGETRTISHFHYTTWPDFGVPESPASFLNFLFKVRESGSLNPDHGPAVIHCSAGIGRSGTFSLVDTCLVLMEKGDDINIKQVLLNMRKYRMGLIQTPDQLRFSYMAIIEGAKCIKGDSSIQKRWKELSKEDLSPAFDHSPNKIMTEKYNGNRIGLEEEKLTGDRCTGLSSKMQDTMEENSESALRKRIREDRKATTAQKVQQMKQRLNENERKRKRPRLTDT | binds
